# Experimental data from patent US20130071431A1, “Method for Preserving Polypeptides Using A Sugar and Polyethyleneimine” (Stabilitech Ltd., priority 2008, published 2013).
# B1: G-CSF: human recombinant G-CSF (Sigma in Example 2; MBL JM-4094-10 in Examples 14 and 16) (protein, UniProt P09919 31-207, looked up)
# Granulocyte …: TPLGPASSLPQSFLLKCLEQVRKIQGDGAALQEKLVSECATYKLCHPEELVLLGHSLGIPWAPLSSCPSQALQLAGCLSQLHSGLFLYQGLLQALEGISPELGPTLDTLQLDVADFATTIWQQMEELGMAPALQPTQGAMPAFASAFQRRAGGVLVASHLQSFLEVSYRVLRHLAQP
# How the values were obtained:
# [1] = Beta-galactosidase assay with x-gal (Example 11); type: biochemical; settings: 1M Suc, 100 mM Raf
# Method: Excipients mixtures containing β-galactosidase were prepared according to the table below and vortexed. 10 units of β-galactosidase were added to each vial. 200 μl of the vortexed mixture was placed in each appropriately labelled 5 ml glass vials. PEI was obtained from Sigma (P3143, Mn 60,000).
# The condenser chamber was −70° C. However there was no shelf control on the freeze-drying unit.
# Following freeze-drying, vials were reconstituted in 1 ml PBS. 100 μl of the resulting solution from each vial was added in duplicate (giving a total of 6 readings per excipient type) to each well of a flat bottom 96 well plate. The substrate x-gal was added as according to the manufacturer's instructions. Briefly, a stock solution of 20 mg/ml was made in DMSO and used at a 1 mg/ml working concentration. 100 μl was added to each well and the solution allowed to develop over 10 minutes. Following development, absorbance was measured at 630 nm on a synergy HT microplate. Background from blank wells was then subtracted from all the readings and results assessed using Prism Graphpad.
# [2] = HRP activity assay (OPD/H2O2) after freeze-drying and heat-freeze cycles; type: biochemical
# Method: Type IV horse radish peroxidase (HRP, Sigma-Aldrich) was diluted to 1 μg/ml in:
# The PEI was obtained from Sigma (P3143, Mn 60,000). The PEI concentration was based on Mn. 10×100 μl volumes of each of the above solutions were prepared in 5 ml freeze-drying vials. Five replicates of each solution were freeze-dried from minus 32° C. over a 3 day cycle on a VirTis Advantage laboratory freeze-dryer using the protocol described in Example 6.
# One vial from each solution of the liquid and dried samples was placed at 4° C. while the rest were frozen to −20° C. Samples from each of the liquid and dry solutions were subjected to 2, 4, and 6 heat-freeze cycles by removing them from the −20° C. freezer and placing them in an incubator set at 37° C. for 4 hours before replacing them in the freezer for 20 hrs 2, 4 and 6 times. 1 vial of each was retained at −20° C. as a control.
# When the cycling was completed all the samples, including the −20° C. and 4° C. maintained non-cycled controls were allowed to equilibrate to room temperature. The freeze-dried samples were then reconstituted with 100 μl/vial of deionised water at room temperature.
# Triplicate 10 μl samples were removed from each vial into wells of a flat bottomed ELISA plate (Nunc Maxisorb). To each well was then added 50 ul of a chromogen/substrate solution containing 0.4 mg/ml orthophenylene diamine (OPD) and 0.4 ul/ml 30% hydrogen peroxide (H2O2). Colour was allowed to develop before the reaction was stopped by the addition of 50 μl/well of 1M sulphuric acid (H2SO4). Absorbance was measured at 490 nm on a BioTek Synergy HT spectrophotometer and plotted as optical density (OD).
# [3] = system: HL-60 cells (phospho-ERK1/ERK2); assay: Cell-based ELISA of phosphorylated ERK1/ERK2 in HL-60 cells
# Method: Sucrose solution was prepared by adding 32 g sucrose powder to 32 ml PBS in a 50 ml falcon tube to give a final volume of 52 ml correlating to a final concentration of 61.54%. The solution was gently heated in a microwave to assist initial solvation but thereafter stored at 4° C.
# Raffinose solution was prepared by adding 4 g raffinose to 8 ml PBS in a 50 ml falcon tube to give a final volume of 10.2 ml corresponding to a final concentration of 39.2%. The solution was heated in a microwave to allow complete solvation.
# To produce the final sugar mix, the sucrose and raffinose solutions described above were mixed in a 4:1 ratio. In practise, 32 ml sucrose solution was mixed with 8 ml raffinose solution. Once composed, sugar mix was stored at 4° C. and suffered no precipitation.
# 6 g of PEI (50% w/v) was added to 500 ml PBS to make 6 mg/ml then diluted 1 in 10 to make 600 ug/ml. 600 μg/ml was then diluted to make 100 μg/ml solution of PEI. Serial 1 in 10 dilutions were prepared in PBS to a concentration of 0.01 μg/ml. For final concentrations of PEI refer to Table 2 below. Concentrations were calculated based on Mn.
# 10 μg of 98% purified recombinant human G-CSF was reconstituted in 1 ml of PBS and diluted to 0.2 ng/ml in PBS (1 in 50,000 dilution), with a starting concentration 10 μg/ml. The G-CSF was aliquoted in 15 μl in Eppendorf tubes and stored at −20° C. for further use.
# First dilution: 10 μl of G-CSF at 10 μg/ml was added to 990 μl of PBS (1 in 100 dilutions). Second dilution: 10 μl of 1 in 100 dilutions of G-CSF was added to 4.99 ml of PBS (1 in 500 dilutions). For final concentrations of G-CSF refer to Table 2.
# Excipients were prepared according to Table 2. The final concentration of G-CSF was 0.2 ng/ml per vial. The excipients were vortexed to mix and 100 μl placed in each appropriately labelled 5 ml glass vial. Samples were freeze dried by the VirTis Advantage freeze dryer for approximately 3 days.
# Samples were prepared as 100 μl aliquots. Freeze-dried samples were resuspended in 100 μl of water.
# The ELISA assay method described below was followed as general assay procedure of cell base assay's kit (R&D Systems).
# HL-60 cells were maintained in phenol red containing RPMI 1640 supplemented with 20% foetal bovine serum (FBS), Glutamine and Penicillin Streptomycin. HL-60 cells were passaged weekly and medium was replenished every 2-3 days.
# The HL-60 (passage three) were transferred to a centrifuge tube and spun down at 1300 rpm, for 5 minutes at 4° C. The supernatant was poured off into a T-75 flask. The pellet was resuspended in 10 ml cold media.
# 200 μl of cell suspension was transferred into an Eppendorf tube by using a 5 ml pipette. 100 μl of cell suspension was added to 100 μl of trypan blue into another Eppendorf tube and mixed. […]
# [4] = system: HL60 cells (ERK1/2 phosphorylation); assay: HL60 cell stimulation assay, immunoblot of phosphorylated and total ERK1/2; type: cell-based
# Method: A lyophilised sample of G-CSF was reconstituted to a concentration of 10 μg/ml. 160 μl of sucrose (1.82M) and 40 μl of raffinose (0.75M) were mixed with 50 μl of PEI (at a concentration of 150 nM based on Mn) to complete the preservation mixture. 50 μl of the reconstituted G-CSF solution was added and mixed well.
# 100 μl aliquots of the final mixture was distributed into separate vials, and frozen or freeze-dried. Lyophilisation was carried out overnight as described in Example 1. […] Following incubation, the samples were reconstituted in RPMI prior to use.
# HL60 cells (shown to be mycoplasma free) were maintained in phenol red containing RPMI 1640 supplemented with 10% foetal bovine serum (FBS) and 2 mM glutamine. Cells were passaged weekly and medium was replenished every 2-3 days.
# For stimulation assays HL60 cells were harvested and transferred to serum free medium at a density of 5×10^5 perwell of a 6 well plate. After 24 hours cells were stimulated for 5 minutes with the treatments shown in FIG. 2 (100 ng/ml G-CSF) and as indicated below:
# Whole cell extracts were resolved by SDS-PAGE and then transferred to nylon membranes, which were immunoprobed with antibodies against phosphorylated and total ERK1/2.
# Cell suspensions were harvested (1000 rpm for 5 minutes) and washed with ice-cold PBS. Cell pellets were then lysed in extraction buffer (1% (v/v) Triton X100, […], pH 7.4, 5 mM EDTA, 50 mM NaCl, 50 mM sodium fluoride 2 mM Na3VO4 and 1 tablet of Complete™ inhibitor mix (Boehringer) per 10 ml of buffer) and homogenised by passage through a 26-gauge needle 6 times. The lysate was incubated on ice for 10 minutes then clarified by centrifugation (14,000 rpm for 10 minutes at 4° C.). The protein concentration was then quantified using the […] (Biorad, Inc.). Equal amounts of protein ([…]) were resolved by SDS-PAGE (10% gels) and then subjected to immunoblot analysis. Antigen-antibody interactions were detected with ECL (Pierce, UK).
# [5] = native (untreated) G-CSF, 100 ng/ml, 5 minutes, serum starved HL60 cells
molecule,measurement,setting,value
β-galactosidase: β-galactosidase enzyme (Sigma),β-galactosidase activity following freeze-drying,"[1]; 13.3 μM PEI, compared to sucrose/raffinose alone",further enhanced
same,β-galactosidase activity following freeze-drying,"[1]; no PEI, compared to PBS",high in sucrose/raffinose excipients compared to PBS
"HRP: Type IV horse radish peroxidase (HRP, Sigma-Aldrich)",HRP activity (OD 490 nm),"[2]; 1M Suc/100 mM Raf with or without 16.6 nM PEI versus PBS alone, all treatments and storage conditions",better maintained
same,HRP activity after heat/freeze cycles,"[2]; excipient-treated samples, 6 heat/freeze cycles (37° C. 4 hours / −20° C. 20 hrs)",still maintained more HRP activity than unchallenged samples in PBS
same,loss of HRP activity,"[2]; sugars, especially in combination with PEI, at the initial freeze-drying stage",significantly reduces loss of HRP activity
B1,level of phosphorylated ERK1/ERK2,"[3]; 1M Suc, 0.1M Raf with 1.6 μM, 0.16 μM or 0.016 μM PEI, freeze dried, heat treated at 56° C. (15 min, 1 h, 2 h, O/N)",higher level of phosphorylated ERK1/ERK2
same,protection of G-CSF (ERK 1/2 phosphorylation),"[3]; 1M Suc, 0.1M Raf with 1.6 μM, 0.16 μM or 0.016 μM PEI, freeze dried, 37° C. or 56° C. for 1 week",protects and stabilises G-CSF
same,efficacy (phosphorylated ERK1/ERK2),"[3]; freeze-dried with high level of PEI, heat treated at 56° C.",greater efficacy
same,protection of G-CSF (ERK 1/2 phosphorylation),"[3]; sugars with PEI final concentration of 1.6 μM, freeze dried, 37° C. and 56° C. for 1 week",highest level of protection
same,potency (ERK1/2 phosphorylation) compared to untreated G-CSF,[4]; G-CSF mixed with excipient and freeze-dried (FIG. 2C),maintain the potency
same,activity (ERK1/2 phosphorylation) compared to untreated G-CSF,"[4]; G-CSF mixed with excipient then heat treated 37° C. for 72 hours, not freeze-dried (FIG. 2B)",marked loss of activity
same,protection against heat inactivation (ERK1/2 phosphorylation),"[4]; G-CSF mixed with excipient, freeze-dried and heat treated 37° C. for 72 hours (FIG. 2D)",protect G-CSF against heat inactivation
same,ERK1/2 phosphorylation,[4]; [5],enhance phosphorylation
same,total ERK1/2 levels,[4]; [5],without any effect
